The source of these data is patent US20220064272A1.

Test [1] deals with TauC3 (C-terminally truncated tau fragment ending at aspartate 421 of htau40) (human) (UniProt P10636). As to the kind of experiment: binding ELISA on coated TauC3, OD650; left table (HC variants); isotype control. In general terms: ELISA stands for enzyme-linked immunosorbent assay.
Test [2] has the same target. As to the kind of experiment: binding ELISA on coated TauC3, OD650; right table (HM variants); isotype control.

TauC3 (C-terminally truncated tau fragment ending at aspartate 421 of htau40) (human), sequence (P10636 other isoform, or with tags, fused parts or gaps): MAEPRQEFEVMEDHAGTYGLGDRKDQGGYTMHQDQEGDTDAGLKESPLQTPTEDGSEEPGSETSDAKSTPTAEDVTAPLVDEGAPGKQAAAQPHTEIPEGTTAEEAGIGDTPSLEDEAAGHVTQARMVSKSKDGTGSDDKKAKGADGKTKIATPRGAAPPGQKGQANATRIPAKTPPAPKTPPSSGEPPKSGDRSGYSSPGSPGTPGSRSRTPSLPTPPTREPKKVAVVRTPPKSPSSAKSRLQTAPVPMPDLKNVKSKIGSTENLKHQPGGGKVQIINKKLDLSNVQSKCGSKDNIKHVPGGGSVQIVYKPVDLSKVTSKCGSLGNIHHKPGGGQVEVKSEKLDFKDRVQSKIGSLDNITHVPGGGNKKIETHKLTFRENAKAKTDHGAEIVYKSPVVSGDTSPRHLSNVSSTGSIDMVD

As for isotype control antibody, the 50% effective concentration (EC50) in test [1] and in test [2] was 15.5 nM throughout.

As usually defined, the EC50 is the concentration at which the effect is half-maximal. A high value points to weaker potency.
